One assay relates to production strain JM15. In words: Cysteine production in 1 L fermenter, JM15 with plasmid-encoded cysE alleles. The class given is cell-based, E. coli. Particulars: 48 h, JM15 transformed with plasmid. On the procedure: Influence of different, plasmid-encoded cysE alleles on the production of L-cysteine or products derived from L-cysteine in a 1 L fermenter using the host strain JM15 20 mL of LB medium (1% tryptone, 0.5% yeast extract, 0.5% NaCl) contained in a 100 mL Erlenmeyer flask were inoculated with a single colony of the production strain JM15 (CGSC#5042) which had been transformed with the respective cysE plasmid.
After having been incubated for 7 hours in a bacterial shaker (30° C., 150 rpm), the respective preliminary cultures were transferred to 100 mL of SM1 medium. The SM1 medium contained 5 g/L glucose, 5 mg/L vitamin B1, 3 g/l KH2 PO4, 12 g/L K2 HPO4, 0.3 g/L MgSO4×7 H2 O, 0.1 g/L NaCl, 5 g/L (NH4)2 SO4, 14.7 mg/L CaCl2×2 H2 O, 2 mg/L FeSO4×2 H2 O, 1 g/L Na3 citrate×2 H2 O, 1 ml/L trace element solution and 25 mg/L tetracycline. The trace element solution was composed of 0.15 g/L Na2 MoO4×2 H2 O, 2.5 g/L H3 BO3, 0.7 g/L CoCl2×6 H2 O, 0.25 g/L CuSO4×5 H2 O, 1.6 g/L MnCl2×4 H2 O and 0.3 g/L ZnSO4×7 H2 O. The cultures were shaken in 1 L Erlenmeyer flasks at 30° C. and at 150 rpm for 17 h. After this incubation, the OD600 was between 4 and 5. The subsequent fermentation was carried out in Braun-Melsungen BIOSTAT M research fermenters. A culturing vessel having a total volume of 2 L was used.
The fermentation medium contained 15 g/L glucose, 5 g/L NaCl, 0.3 g/L MgSO4×7 H2 O, 15 mg/L CaCl2×2 H2 O, 75 mg/L FeSO4×7 H2 O, 1 g/L Na3 citrate×2 H2 O, 1.5 g/L KH2 PO4, 1 mL of trace element solution (see above), 5 mg/L vitamin B1, 2.5 g/L yeast extract (Difco), 2.5 g/L tryptone (Difco) and 25 mg/L tetracycline.
The glucose concentration in the fermenter was initially adjusted to a value of 15 g/L by pumping in a 700 g/L (w/v) (sterilized) glucose solution, and the pH was adjusted to 7.0 by pumping in a 25% NH4 OH solution. After an OD600 of 10 had been reached, 300 mg per hour were supplied from a sterile 100 g/L (w/v) stock solution of thiosulfate. 100 mL of preliminary culture were pumped into the fermenter vessel for the inoculation. The starting volume was approximately 1 L. The cultures were initially stirred at 400 rpm and aerated with 1.5 vvm of compressed air which had been sterilized by passing through a sterile filter. The fermentation was carried out at a temperature of 30° C.
The pH was maintained at a value of 7.0 by means of automatic correction with 25% NH4 OH. The oxygen saturation in the fermentation broth had at no time during the fermentation to fall below 20%; the stirring speed was used to ensure this. The glucose content of the nutrient solution, the optical density and the cysteine content were determined at two- to three-hourly intervals. The glucose content was determined enzymically using a glucose analyzer from YSI. The concentration of the glucose was adjusted to between 10 and 20 g/L by means of continuously feeding in this compound.
The content of cysteine in the medium was determined […] from the cell-free super-natant of the sample using the method of Gaitonde, M. K. (1967), Biochem. J. 104, 627-633.
The fermentation was terminated after 44-50 h.

Assay [1] deals with Corynebacterium glutamicum ATCC21851. In words: Cysteine production by fermentation using corynebacteria with pWST1-cysE plasmids. The class given is cell-based. Particulars: allele on pWST1 plasmid; compared with cysEIV, cysEX, cysEXIV. The text has this:
The feedback-resistant cysE alleles, cysEIV, cysEX, cysEXI and cysEXIV (cf. Tab. 2 in Example 1), were cleaved out of their corresponding plasmids using the restriction enzymes BamHI and EcoRI (from Boehringer Mannheim) and each respective 1.15 kb-sized DNA fragment was purified through an agarose gel and isolated. The respective DNA fragment was rendered blunt-ended using the Klenow fragment of E. coli DNA polymerase I (from Boehringer Mannheim). The vector pWST1 was hydrolyzed with the restriction enzyme Smal (from Boehringer Mannheim) and ligated to the blunt-ended DNA fragment using T4 DNA ligase. The vector pWST1 is an E. coli/Corynebacterium shuttle vector and can replicate both in E. coli and in corynebacteria. The corynebacterial replicon of this vector originates from the Corynebacterium glutamicum strain ATCC 19223. The preparation of vector pWST1 is described in U.S. Pat. No. 4,965,197. The ligation mixture was used to transform the mutant JM15, which is auxotrophic for cysteine. The complementing plasmids were designated pWST1-cysEIV, pWST1-cysEX, pWST1-cysEXI and pWST1-cysEXIV in accordance with their inserted cysE alleles.
The pWST1-cysE plasmids were used to transform the Corynebacterium glutamicum ATCC21851. The transformation was carried out by electroporation using the technique described in detail in Liebl, W. et al., 1989, FEMS Microbiol. Letters, 65, 299-304. […]

B1: cysEXI: double mutant Thr167->Ala167, Gly245->Ser245 (protein, UniProt P0A9D4 1-273, looked up, variant T167A G245S)
Serine acetyltransferase: MSCEELEIVWNNIKAEARTLADCEPMLASFYHATLLKHENLGSALSYMLANKLSSPIMPAIAIREVVEEAYAADPEMIASAACDIQAVRTRDPAVDKYSTPLLYLKGFHALQAYRIGHWLWNQGRRALAIFLQNQVSVTFQVDIHPAAKIGRGIMLDHATGIVVGEAAVIENDVSILQSVTLGGTGKSGGDRHPKIREGVMIGAGAKILGNIEVGRGAKIGAGSVVLQPVPPHTTAAGVPARIVSKPDSDKPSMDMDQHFNGINHTFEYGDGI
Molecule B1 returned a Cysteine yield in the assay with production strain JM15 of 3.4 g/L. The cysteine yields entry in assay [1] is on record as “highest cysteine yields”.

The record behind these values is patent US6218168A, “Process for preparing O-acetylserine, L-cysteine and L-cysteine-related products” (Consortium fur elektrochemische Inudstrie GmbH, priority 1995, dated 2001).
